In the supplement of paper PMC10065799, “High-throughput profiling of sequence recognition by tyrosine kinases and SH2 domains using bacterial peptide display” (eLife, 2023):

Legend:
[1] = target: c-Src SH2; test: SH2 binding enrichment of the phosphorylated peptide, bacterial display (enrichment ratio); higher = better substrate or ligand; peptides without Tyr show the background
[2] = target: Grb2 SH2 (UniProt P62993); test: as above
[3] = target: SHP2-C SH2; test: as above
[4] = target: MERTK (UniProt Q12866); test: phosphorylation enrichment, bacterial display (enrichment ratio); higher = better substrate or ligand; peptides without Tyr show the background
[5] = test system: Fer (mouse); test: as above
[6] = target: Fes (UniProt P07332); test: as above
[7] = test system: c-Abl (mouse); test: as above
[8] = test system: c-Src; test: as above
[9] = target: FGFR3 (UniProt P22607); test: as above
[10] = target: Hck (UniProt P08631); test: as above
[11] = target: Jak2 (UniProt O60674); test: as above
[12] = target: EPHB1 (UniProt P54762); test: as above
[13] = target: Fyn (UniProt P06241); test: as above
[14] = test system: AncSZ; test: as above
[15] = target: EPHB2 (UniProt P29323); test: as above
[16] = target: FGFR1 (UniProt P11362); test: as above
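Wherever SH2 binding enrichment of the phosphorylated peptide, bacterial display is given: peptide library displayed on the E. coli surface as eCPX fusions, selected cells deep-sequenced, score is each peptide's frequency after selection divided by its frequency in the input.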
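Wherever phosphorylation enrichment, bacterial display is given: 11-residue human phosphosite peptides and single-mutation variants displayed on the E. coli surface, counted by deep sequencing, each peptide's frequency after selection divided by its frequency in the unselected input library; frequency after pTyr selection over input frequency; kinase dosed for 20-30% of maximal phosphorylation in three min.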

Chain of FGFR1 (P11362 whole entry, looked up, the tested form may be a part): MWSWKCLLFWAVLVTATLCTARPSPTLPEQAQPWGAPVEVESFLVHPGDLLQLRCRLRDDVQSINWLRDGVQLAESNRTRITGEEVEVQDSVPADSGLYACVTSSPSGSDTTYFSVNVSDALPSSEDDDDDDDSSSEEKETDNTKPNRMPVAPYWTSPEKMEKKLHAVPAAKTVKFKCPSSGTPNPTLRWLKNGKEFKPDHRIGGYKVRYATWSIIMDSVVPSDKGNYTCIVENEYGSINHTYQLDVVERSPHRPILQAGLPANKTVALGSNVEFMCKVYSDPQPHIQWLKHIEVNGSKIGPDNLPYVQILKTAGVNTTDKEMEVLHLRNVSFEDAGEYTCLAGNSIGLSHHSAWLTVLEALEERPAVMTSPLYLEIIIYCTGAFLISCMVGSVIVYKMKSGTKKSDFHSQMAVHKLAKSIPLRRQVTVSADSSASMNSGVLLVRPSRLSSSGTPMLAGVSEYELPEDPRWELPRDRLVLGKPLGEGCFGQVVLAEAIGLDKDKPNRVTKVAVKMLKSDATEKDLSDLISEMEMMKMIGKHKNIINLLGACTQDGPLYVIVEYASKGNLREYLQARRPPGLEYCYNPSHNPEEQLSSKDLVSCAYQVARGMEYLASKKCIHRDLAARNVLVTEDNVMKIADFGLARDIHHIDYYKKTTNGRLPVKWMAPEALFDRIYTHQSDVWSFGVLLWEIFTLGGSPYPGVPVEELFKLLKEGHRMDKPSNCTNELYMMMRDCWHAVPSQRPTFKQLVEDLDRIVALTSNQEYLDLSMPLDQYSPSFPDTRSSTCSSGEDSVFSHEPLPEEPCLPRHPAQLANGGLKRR
Chain of MERTK (Q12866 whole entry, looked up): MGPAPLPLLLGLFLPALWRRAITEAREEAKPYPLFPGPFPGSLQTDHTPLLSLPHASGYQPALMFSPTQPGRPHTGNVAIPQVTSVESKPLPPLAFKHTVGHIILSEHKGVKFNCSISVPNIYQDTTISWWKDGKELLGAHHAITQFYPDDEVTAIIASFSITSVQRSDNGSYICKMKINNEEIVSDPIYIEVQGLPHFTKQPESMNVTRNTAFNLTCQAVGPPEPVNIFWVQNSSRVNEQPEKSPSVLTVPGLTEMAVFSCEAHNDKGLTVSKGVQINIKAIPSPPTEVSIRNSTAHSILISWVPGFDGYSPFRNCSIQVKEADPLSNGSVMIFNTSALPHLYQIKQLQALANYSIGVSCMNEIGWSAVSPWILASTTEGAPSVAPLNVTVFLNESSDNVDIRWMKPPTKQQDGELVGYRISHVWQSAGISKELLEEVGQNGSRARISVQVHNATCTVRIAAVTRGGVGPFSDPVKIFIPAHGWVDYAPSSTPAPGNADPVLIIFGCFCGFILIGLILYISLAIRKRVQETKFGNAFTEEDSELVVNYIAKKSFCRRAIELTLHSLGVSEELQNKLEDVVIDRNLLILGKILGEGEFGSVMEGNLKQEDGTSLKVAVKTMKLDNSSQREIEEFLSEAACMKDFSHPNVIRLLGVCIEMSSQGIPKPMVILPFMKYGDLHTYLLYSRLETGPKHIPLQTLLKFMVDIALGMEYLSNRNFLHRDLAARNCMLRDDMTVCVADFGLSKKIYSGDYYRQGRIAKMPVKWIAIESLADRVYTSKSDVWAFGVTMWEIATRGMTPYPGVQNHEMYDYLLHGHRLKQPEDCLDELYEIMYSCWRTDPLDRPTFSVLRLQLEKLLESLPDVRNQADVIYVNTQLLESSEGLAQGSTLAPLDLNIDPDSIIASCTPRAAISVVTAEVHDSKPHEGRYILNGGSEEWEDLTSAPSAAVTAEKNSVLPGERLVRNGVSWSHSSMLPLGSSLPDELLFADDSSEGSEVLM
Chain of Jak2 (O60674 whole entry, looked up): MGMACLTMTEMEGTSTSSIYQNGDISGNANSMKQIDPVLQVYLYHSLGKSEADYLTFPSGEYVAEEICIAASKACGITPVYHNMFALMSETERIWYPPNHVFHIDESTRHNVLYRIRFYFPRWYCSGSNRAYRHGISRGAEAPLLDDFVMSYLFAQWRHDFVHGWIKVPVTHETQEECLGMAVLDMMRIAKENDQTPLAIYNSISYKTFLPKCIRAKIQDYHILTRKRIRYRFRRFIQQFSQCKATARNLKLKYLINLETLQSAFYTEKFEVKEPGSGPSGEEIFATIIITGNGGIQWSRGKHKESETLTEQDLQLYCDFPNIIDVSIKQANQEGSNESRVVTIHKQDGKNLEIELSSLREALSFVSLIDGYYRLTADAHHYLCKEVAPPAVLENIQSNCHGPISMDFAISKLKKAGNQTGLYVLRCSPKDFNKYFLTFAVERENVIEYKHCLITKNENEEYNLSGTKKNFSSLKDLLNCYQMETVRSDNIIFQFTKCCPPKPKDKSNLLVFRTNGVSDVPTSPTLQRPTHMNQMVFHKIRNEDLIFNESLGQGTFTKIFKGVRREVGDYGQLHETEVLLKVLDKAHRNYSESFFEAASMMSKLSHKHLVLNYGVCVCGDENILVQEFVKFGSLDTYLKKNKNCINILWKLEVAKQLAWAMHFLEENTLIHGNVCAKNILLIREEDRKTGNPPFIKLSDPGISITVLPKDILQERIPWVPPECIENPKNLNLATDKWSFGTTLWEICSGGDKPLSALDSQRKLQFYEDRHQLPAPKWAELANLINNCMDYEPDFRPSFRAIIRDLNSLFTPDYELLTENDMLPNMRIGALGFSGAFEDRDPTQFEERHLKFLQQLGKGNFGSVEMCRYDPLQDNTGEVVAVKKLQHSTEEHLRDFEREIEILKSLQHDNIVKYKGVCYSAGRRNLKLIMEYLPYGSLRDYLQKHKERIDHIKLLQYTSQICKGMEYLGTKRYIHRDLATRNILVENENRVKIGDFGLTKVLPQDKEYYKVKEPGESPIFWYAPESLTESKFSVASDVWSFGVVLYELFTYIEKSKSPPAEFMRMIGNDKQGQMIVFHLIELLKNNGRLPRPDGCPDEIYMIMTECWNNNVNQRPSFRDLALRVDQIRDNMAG
Chain of Hck (P08631 whole entry, looked up): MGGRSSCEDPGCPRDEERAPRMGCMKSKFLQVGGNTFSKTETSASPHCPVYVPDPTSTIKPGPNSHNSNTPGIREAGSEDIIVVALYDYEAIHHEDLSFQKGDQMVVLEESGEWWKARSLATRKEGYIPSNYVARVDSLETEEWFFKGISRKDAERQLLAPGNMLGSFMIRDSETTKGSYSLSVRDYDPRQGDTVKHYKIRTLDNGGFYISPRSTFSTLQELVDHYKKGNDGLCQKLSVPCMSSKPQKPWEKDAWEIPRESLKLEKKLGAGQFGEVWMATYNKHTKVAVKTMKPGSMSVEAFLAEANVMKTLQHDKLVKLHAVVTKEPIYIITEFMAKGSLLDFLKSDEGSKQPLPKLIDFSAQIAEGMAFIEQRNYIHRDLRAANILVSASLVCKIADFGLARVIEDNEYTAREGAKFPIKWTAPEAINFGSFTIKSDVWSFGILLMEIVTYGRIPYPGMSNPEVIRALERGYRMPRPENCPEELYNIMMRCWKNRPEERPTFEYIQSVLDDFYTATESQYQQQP
Chain of Fes (P07332 whole entry, looked up): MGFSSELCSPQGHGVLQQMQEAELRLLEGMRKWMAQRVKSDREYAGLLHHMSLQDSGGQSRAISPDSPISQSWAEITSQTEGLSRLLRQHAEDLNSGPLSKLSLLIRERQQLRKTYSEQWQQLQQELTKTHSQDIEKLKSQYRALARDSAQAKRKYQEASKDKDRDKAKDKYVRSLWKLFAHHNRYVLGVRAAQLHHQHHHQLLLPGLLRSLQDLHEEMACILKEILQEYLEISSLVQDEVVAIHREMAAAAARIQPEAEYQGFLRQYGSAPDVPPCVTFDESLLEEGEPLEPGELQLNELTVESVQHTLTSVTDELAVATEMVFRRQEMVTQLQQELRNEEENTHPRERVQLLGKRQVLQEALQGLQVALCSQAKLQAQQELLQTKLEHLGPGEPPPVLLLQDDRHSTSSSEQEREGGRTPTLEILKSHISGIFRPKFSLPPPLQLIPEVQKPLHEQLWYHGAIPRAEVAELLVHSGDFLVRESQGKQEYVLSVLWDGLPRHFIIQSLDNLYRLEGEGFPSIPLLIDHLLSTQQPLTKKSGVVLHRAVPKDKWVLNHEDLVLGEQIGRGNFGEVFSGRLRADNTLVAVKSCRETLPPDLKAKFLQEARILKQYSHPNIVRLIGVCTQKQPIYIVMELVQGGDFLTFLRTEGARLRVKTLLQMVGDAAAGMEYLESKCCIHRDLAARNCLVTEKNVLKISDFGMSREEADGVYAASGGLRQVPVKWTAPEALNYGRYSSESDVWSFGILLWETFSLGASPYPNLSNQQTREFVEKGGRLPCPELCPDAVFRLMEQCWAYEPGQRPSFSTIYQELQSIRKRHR
Chain of Fyn (P06241 whole entry, looked up): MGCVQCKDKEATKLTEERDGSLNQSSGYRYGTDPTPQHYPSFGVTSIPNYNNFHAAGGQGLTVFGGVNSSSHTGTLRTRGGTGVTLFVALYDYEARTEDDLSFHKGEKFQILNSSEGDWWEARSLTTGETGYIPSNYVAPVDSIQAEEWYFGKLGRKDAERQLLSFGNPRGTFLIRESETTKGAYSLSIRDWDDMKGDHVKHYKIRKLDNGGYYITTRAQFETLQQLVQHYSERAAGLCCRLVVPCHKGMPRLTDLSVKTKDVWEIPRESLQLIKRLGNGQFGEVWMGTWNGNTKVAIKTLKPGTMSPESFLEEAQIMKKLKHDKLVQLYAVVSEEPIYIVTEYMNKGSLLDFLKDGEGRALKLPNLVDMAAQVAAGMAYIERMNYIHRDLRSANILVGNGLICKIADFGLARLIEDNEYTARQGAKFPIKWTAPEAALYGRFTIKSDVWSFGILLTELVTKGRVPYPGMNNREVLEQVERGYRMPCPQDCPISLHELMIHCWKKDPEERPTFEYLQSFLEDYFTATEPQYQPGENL

SH2 binding enrichment [1] | SH2 binding enrichment [2] | SH2 binding enrichment [3] | Sequence | phosphorylation enrichment [4] | phosphorylation enrichment [5] | phosphorylation enrichment [6] | phosphorylation enrichment [7] | phosphorylation enrichment [8] | phosphorylation enrichment [9] | phosphorylation enrichment [10] | phosphorylation enrichment [11] | phosphorylation enrichment [12] | phosphorylation enrichment [13] | phosphorylation enrichment [14] | phosphorylation enrichment [15] | phosphorylation enrichment [16]
0.813 | 1.19 | 1.32 | LFQAKYQIRFR [CRLF1_Y272_YF] | 0.868 | 0.972 | 1.6 | 1.31 | 1.02 | 1.35 | 0.524 | 1.64 | 0.698 | 0.643 | 1.83 | 0.69 | 1.03
1.2 | 0.805 | 0.613 | RMGNLYDIDEN [GRIN2A_Y1246_D1251N] | 1.03 | 0.864 | 2.16 | 2.11 | 3.1 | 1.22 | 1.86 | 3.11 | 1.16 | 4.25 | 1.52 | 1.44 | 0.876
0.992 | 1.1 | 1.36 | VYLGAYDCFLP [SLC22A5_Y486_R488C] | 7.36 | 7.23 | 1.41 | 1.77 | 6.4 | 1.09 | 5.14 | 1.28 | 5.46 | 7.34 | 2.18 | 8.08 | 1.15
1.4 | 1.08 | 1.17 | KLCHLYQDHMQ [WNT5A_Y86] | 0.45 | 0.667 | 0.881 | 0.597 | 0.575 | 0.514 | 0.554 | 0.549 | 0.54 | 0.442 | 0.654 | 0.53 | 0.44
0.43 | 0.62 | 0.409 | VSRGRYRPQEC [B4GALT4_Y113] | 0.575 | 0.542 | 0.643 | 0.545 | 0.657 | 0.515 | 0.49 | 0.655 | 0.527 | 0.574 | 0.754 | 0.476 | 0.475
0.768 | 0.886 | 0.748 | IRFPPYTDWNQ [ALDH3B2_Y365_H361R_YF] | 0.421 | 0.53 | 0.739 | 0.45 | 0.328 | 0.493 | 0.439 | 0.555 | 0.396 | 0.395 | 0.741 | 0.392 | 0.54
0.352 | 0.669 | 0.488 | GGMTEYNLVVV [KRAS_Y4_K5N] | 0.398 | 1.17 | 1.1 | 0.758 | 0.478 | 1.05 | 0.609 | 0.981 | 0.642 | 0.486 | 1.21 | 0.552 | 1.08
0.439 | 0.626 | 0.352 | QPGDIYHQTWA [GBA_Y244] | 2.84 | 1.3 | 0.963 | 2.9 | 3.42 | 2.69 | 3.66 | 0.938 | 0.825 | 3.11 | 0.989 | 0.88 | 3.42
1.49 | 1.43 | 1.65 | KRELRYMHSRV [ABCD1_Y281_G277R] | 0.305 | 0.272 | 0.578 | 0.486 | 0.313 | 0.447 | 0.381 | 0.525 | 0.282 | 0.312 | 0.472 | 0.534 | 0.295
0.464 | 0.759 | 0.4 | FPRAWCRRSIA [KIAA1109_Y4272_Y4272C] | 0.562 | 0.455 | 0.686 | 0.641 | 0.523 | 0.441 | 0.466 | 0.588 | 0.519 | 0.557 | 0.908 | 0.484 | 0.48
0.369 | 0.637 | 0.609 | VVVTKYCKEEL [ATP7B_Y1078_A1074V] | 0.447 | 0.554 | 1.37 | 0.873 | 0.492 | 0.824 | 0.546 | 0.968 | 0.639 | 0.568 | 1.08 | 0.658 | 0.58
0.396 | 0.578 | 0.25 | RRIHSYRGHVW [VHL_Y112_L116V] | 1.12 | 0.559 | 0.99 | 0.848 | 1.04 | 0.965 | 0.736 | 1.35 | 0.733 | 0.861 | 1.56 | 0.486 | 0.899
0.653 | 0.711 | 0.493 | QSSALYEDRYL [ASS1_Y83] | 1.1 | 7.79 | 1.12 | 0.61 | 1.2 | 0.74 | 4.44 | 1.01 | 3.12 | 0.997 | 1.15 | 2.45 | 0.56
0.4 | 0.62 | 0.549 | SAPPSHEETVA [LITAF_Y23_Y23H] | 0.338 | 0.524 | 0.597 | 0.489 | 0.404 | 0.84 | 0.342 | 0.817 | 0.435 | 0.481 | 0.453 | 0.393 | 0.374
0.692 | 1.11 | 0.989 | LASLIYNFVLF [AQP6_Y231] | 7.85 | 14.5 | 2.2 | 4.1 | 7.23 | 3.34 | 5.89 | 1.51 | 1.93 | 7.62 | 1.73 | 4.52 | 3.53
0.691 | 1.08 | 1.19 | KIVQDYLEKFF [MMP8_Y36_T32I_YF] | 0.512 | 0.65 | 1.38 | 0.956 | 0.556 | 0.808 | 0.773 | 1.02 | 0.662 | 0.614 | 1.19 | 0.595 | 0.616
0.51 | 0.911 | 0.729 | EKGEEYGGGGG [TUBA1A_Y451_E447K] | 0.296 | 0.499 | 0.855 | 0.384 | 0.293 | 0.67 | 0.63 | 0.578 | 0.585 | 0.448 | 0.847 | 0.574 | 0.578

SH2 binding enrichment [1] | SH2 binding enrichment [2] | SH2 binding enrichment [3] | Sequence | phosphorylation enrichment [4] | phosphorylation enrichment [5] | phosphorylation enrichment [6] | phosphorylation enrichment [7] | phosphorylation enrichment [8] | phosphorylation enrichment [9] | phosphorylation enrichment [10] | phosphorylation enrichment [11] | phosphorylation enrichment [12] | phosphorylation enrichment [13] | phosphorylation enrichment [14] | phosphorylation enrichment [15] | phosphorylation enrichment [16]
0.599 | 1.01 | 0.532 | SVTCTYSPALD [TP53_Y126_N131D] | 0.466 | 0.821 | 1.76 | 1.24 | 0.745 | 1.01 | 0.656 | 1.51 | 0.882 | 0.641 | 1.74 | 0.816 | 0.616
0.605 | 0.92 | 0.497 | VIEQRYNETWL [SLC2A4_Y56_S55R] | 0.381 | 0.457 | 1.05 | 0.659 | 0.402 | 0.553 | 0.468 | 0.744 | 0.467 | 0.538 | 0.809 | 0.519 | 0.516
1.1 | 0.933 | 0.801 | KLPDAYERFIL [G6PD_Y437_L440F] | 0.538 | 1.22 | 1.06 | 0.745 | 0.713 | 0.661 | 0.569 | 0.892 | 0.568 | 0.578 | 0.985 | 0.562 | 0.476
0.513 | 0.921 | 0.873 | KEDPEYKKKFR [FAM161A_Y278_E273K] | 0.433 | 0.455 | 1.07 | 0.824 | 0.502 | 0.6 | 0.477 | 1.02 | 0.499 | 0.34 | 0.749 | 0.589 | 0.534
0.376 | 0.964 | 0.369 | QPDFLYDHIQP [TRRAP_Y862] | 7.66 | 12 | 1.74 | 0.928 | 5.86 | 1.45 | 9.82 | 1.21 | 5.27 | 6.9 | 2.58 | 3.31 | 0.622
0.512 | 0.807 | 0.605 | RREWFYEVIIA [BACE1_Y260_V265A_YF] | 1.24 | 0.66 | 0.733 | 0.483 | 0.498 | 0.764 | 0.598 | 0.807 | 0.515 | 0.593 | 0.927 | 0.391 | 0.784
0.535 | 0.761 | 0.769 | ASIVDYNIIGW [MYH7_Y588_G584S] | 0.498 | 0.59 | 1.22 | 0.92 | 0.514 | 0.865 | 0.605 | 0.947 | 0.742 | 0.45 | 1.11 | 0.528 | 0.948
0.487 | 0.941 | 0.651 | SVSVNYGDQVQ [GRAP_Y101] | 0.545 | 0.442 | 0.902 | 0.804 | 0.429 | 0.561 | 0.416 | 0.794 | 0.443 | 0.409 | 0.748 | 0.483 | 0.481
0.594 | 0.952 | 1.34 | PYRSIYFSSPK [MPG_Y75] | 0.835 | 0.72 | 0.648 | 0.887 | 0.903 | 0.856 | 1.09 | 0.657 | 0.519 | 1.03 | 0.878 | 0.582 | 0.778
0.534 | 0.77 | 0.832 | YKIYRYTLNDN [FN1_Y1975_L1974R] | 0.331 | 0.406 | 1.04 | 0.688 | 0.415 | 0.617 | 0.573 | 0.905 | 0.467 | 0.368 | 1.13 | 0.557 | 0.439
0.579 | 0.651 | 0.539 | RSAGKYDVYLI [MECP2_Y120] | 0.412 | 0.555 | 1.06 | 0.587 | 1.8 | 0.717 | 0.878 | 0.987 | 0.525 | 1.31 | 0.885 | 0.77 | 0.433
0.651 | 0.785 | 0.78 | RGKEPYTKKAL [TTC21B_Y160] | 0.724 | 0.299 | 1.01 | 0.933 | 0.829 | 0.522 | 0.436 | 0.773 | 0.596 | 0.438 | 0.815 | 0.698 | 0.568
0.557 | 0.933 | 1.02 | ATPKGYEPDAS [OTC_Y223] | 0.489 | 0.508 | 0.843 | 0.729 | 0.541 | 0.59 | 0.444 | 0.79 | 0.439 | 0.501 | 0.738 | 0.575 | 0.49
1.36 | 0.789 | 0.779 | MKGDYYCYLAE [YWHAG_Y131_R132C] | 5.47 | 1.07 | 1.5 | 1.85 | 2.49 | 9.01 | 1.48 | 5.78 | 5.59 | 2.16 | 3 | 5.89 | 11.4
0.557 | 0.879 | 0.597 | DIMDLYNQPEP [IL36A_Y96] | 0.481 | 0.66 | 1.21 | 0.852 | 1.06 | 0.688 | 0.817 | 1.55 | 0.547 | 0.69 | 1.5 | 0.602 | 0.491
0.39 | 0.659 | 0.73 | ADKAAYLQNLN [MYH1_Y389] | 0.522 | 0.53 | 0.747 | 0.488 | 0.601 | 0.637 | 0.61 | 0.617 | 0.44 | 0.645 | 0.718 | 0.52 | 0.458
